The target in series [1] is T1, rice OsHSL1 (SEQ ID NO: 1) mutant OsHSL1_I335F (Oryza sativa, UniProt A0A7G1K9G4, I335F).
T1 construct: isolated enzyme, HPLC assay
Briefly: Enzyme kinetic parameters with HPPD inhibitors as substrate (HPLC). Particulars: compared with OsHSL1 wild type. The series is classed as biochemical. The source says: (§1) High Performance Liquid Chromatography (HPLC) was used to test OsHIS1 wild-type protein (the amino acid sequence of OsHIS1 wild-type is shown as SEQ ID NO 2, and the corresponding nucleotide sequence is shown as SEQ ID NO 21), the enzyme kinetic parameters of OsHSL1 wild-type protein and some OsHSL1 mutant proteins with higher reactivity and HPPD inhibitors, and the specific results are shown in Table 9-Table 12. […] Each sample was replicated three times. • e.

The target in series [2] is T2, rice OsHSL1 (SEQ ID NO: 1) mutant OsHSL1_L204F/F298L/I335A (Oryza sativa, UniProt A0A7G1K9G4, F298L/I335A/L204F).
T2 construct: isolated enzyme, HPLC assay; I335A may be a misprint of I335F
T2 sequence (A0A7G1K9G4 1-350 L204F/F298L/I335A): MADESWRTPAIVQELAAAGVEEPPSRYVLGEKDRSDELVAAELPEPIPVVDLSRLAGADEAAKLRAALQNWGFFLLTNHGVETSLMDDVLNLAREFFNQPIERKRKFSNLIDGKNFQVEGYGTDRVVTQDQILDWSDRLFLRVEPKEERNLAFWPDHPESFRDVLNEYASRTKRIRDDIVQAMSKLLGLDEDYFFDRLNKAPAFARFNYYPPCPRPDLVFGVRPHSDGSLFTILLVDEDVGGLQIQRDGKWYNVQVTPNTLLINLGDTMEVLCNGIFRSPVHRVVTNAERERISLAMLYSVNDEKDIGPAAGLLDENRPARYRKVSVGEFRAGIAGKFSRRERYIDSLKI
Described as above. It is filed as biochemical.
Text: as §1

Series [3] has as its system OsHSL1 wild type T1 generation positive rice plants. Description: Herbicide resistance test, over-expression in rice (stem-leaf treatment). Conditions: 2 g/mu and 8 g/mu. It is filed as in vivo. As to the method:
(§2) Successfully overexpressed OsHSL1_F140H/L204F/F298L/I335A mutants and OsHSL1 wild type TO generation tissue culture seedlings were selected, cultivated and harvested, and then sown to offspring population T1 generation rice plants, and positive over-expression rice plants were identified.
(§3) OsHSL1_F140H/L204F/F298L/I335A mutant T1 generation positive rice plants and OsHSL1 wild-type T1 generation positive rice plants at 3 weeks of seedling age were treated with different concentrations of methyl-benquitrione aqueous solution on the Stem leaves, and OsHSL1 wild-type T1 generation positive rice plants as a control. The resistance of mutant OsHSL1_F140H/L204F/F298L/I335A to methyl-benquitrione was tested, and the specific results were shown in FIG. 1.

For series [4], the system named is OsHSL1_F140H/L204F/F298L/I335A mutant T1 generation positive rice plants. The series is described as above. Particulars: 2 g/mu and 8 g/mu, after 23 days of treatment. The series is classed as in vivo. On the procedure: as §2, §3
Series [5] addresses T3, rice OsHSL1 (SEQ ID NO: 1) mutant OsHSL1_F140H/L204F/F298L/I335A (Oryza sativa, UniProt A0A7G1K9G4, F140H/F298L/I335A/L204F).
T3 construct: isolated enzyme, HPLC assay
Briefly: Enzyme kinetic parameters with HPPD inhibitors as substrate (HPLC). The series is classed as biochemical. Conditions: compared with OsHSL1 wild type; close to the OsHIS1 wild type.
Text: as §1

Series [6] is classed as biochemical. Conditions: substrate topramezone 50 μM; 30° C.; 10 h; protein 0.5 mg/mL. On the procedure:
(§4) Each sample was replicated three times. • e.
(§5) Control: refers to the addition of inhibitors to the reaction system, but not the addition of enzymes, which is regarded as the substrate surplus when the inhibitor is not catalyzed.
(§6) Sample: in the enzyme reaction system, the same volume and the same concentration (50 μM) of the inhibitor was added, and the catalytic efficiency of the enzyme to the inhibitor was observed.
(§7) Catalytic efficiency=(1−(peak area of substrate in sample)/(peak area of substrate in control))×100%.

In series [7] the test system is T1 generation positive rice plants. Briefly: Herbicide resistance test of over-expression in rice (methyl-benquitrione stem-leaf treatment). The series is classed as in vivo. Particulars: conclusion from FIG. 1. On the procedure: as §2, §3
FIG. 1 is a graph showing the sensitivity of OsHSL1_F140H/L204F/F298L/I335A mutant T1 generation positive rice plants and OsHSL1 wild type T1 generation positive rice plants to the HPPD inhibitor methyl-benquitrione.

The nature of series [8]: Catalytic activity of HSL proteins on HPPD inhibitors (HPLC, substrate consumption). It is filed as biochemical. Conditions: 30° C., 10 h, protein 0.5 mg/mL. As to the method: as §4, §5, §6, §7

Entries after “also recorded” stand apart in the source; their conditions may differ.

T1 sequence (A0A7G1K9G4 entry or part of it I335F): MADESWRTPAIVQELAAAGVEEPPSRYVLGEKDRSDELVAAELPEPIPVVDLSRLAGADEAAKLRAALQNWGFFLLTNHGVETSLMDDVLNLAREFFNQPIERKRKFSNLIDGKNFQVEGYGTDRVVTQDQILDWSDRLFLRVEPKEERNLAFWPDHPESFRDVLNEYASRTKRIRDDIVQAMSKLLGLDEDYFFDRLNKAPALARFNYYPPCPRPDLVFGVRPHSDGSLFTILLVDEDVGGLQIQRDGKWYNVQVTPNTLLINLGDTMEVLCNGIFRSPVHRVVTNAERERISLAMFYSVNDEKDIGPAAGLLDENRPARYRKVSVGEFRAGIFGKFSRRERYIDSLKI

For `Cc1c(C(=O)c2cnn(C)c2O)ccc(S(C)(=O)=O)c1C1=NOCC1` [topramezone], the “catalytic efficiency (in words)” value in series [1] is listed as “obviously superior”.

On to `Cc1nn(C)c(O)c1C(=O)c1ccc2c(c1C)c(=O)n(-c1cccc(Cl)c1)c(=O)n2C` [pyraquinate technical, pyraquinate], for which the “affinity and catalytic efficiency (in words)” value in series [2] (compared with OsHIS1 wild type and OsHSL1 wild type) is listed as “superior”. This molecule registered a Kcat in series [2] (pH 7.0, 30° C., about 20 min) of 0.00135 s⁻¹.

For `Cc1ccccc1-n1c(=O)c2c(C)c(C(=O)C3=C(O)CCCC3=O)ccc2n(C)c1=O` [methyl-benquitrione], the albinism symptoms result in series [3] (after 16 days of treatment) was “almost all have albinism symptoms”. Also, the albino symptoms entry in series [3] (after 23 days of treatment) is “albino symptoms become very obvious”. Further, the “sensitivity (plant colour)” value in series [4] is on record as “basically keep normal green”. In addition, the “affinity and catalytic efficiency (in words)” value in series [5] is “better affinity and catalytic efficiency”.

B1: OsHSL1_F140H/L204F/F298L/I335A: SEQ ID NO.1 with F140 to histidine, L204 to phenylalanine, F298 to leucine, I335 to alanine (protein)
chain: MADESWRTPAIVQELAAAGVEEPPSRYVLGEKDRSDELVAAELPEPIPVVDLSRLAGADEAAKLRAALQNWGFFLLTNHGVETSLMDDVLNLAREFFNQPIERKRKFSNLIDGKNFQVEGYGTDRVVTQDQILDWSDRLHLRVEPKEERNLAFWPDHPESFRDVLNEYASRTKRIRDDIVQAMSKLLGLDEDYFFDRLNKAPAFARFNYYPPCPRPDLVFGVRPHSDGSLFTILLVDEDVGGLQIQRDGKWYNVQVTPNTLLINLGDTMEVLCNGIFRSPVHRVVTNAERERISLAMLYSVNDEKDIGPAAGLLDENRPARYRKVSVGEFRAGIAGKFSRRERYIDSLKI
As for B1, in series [6], the “Catalytic efficiency (%) topramezone” value was 4%. In series [7], the “resistance of over-expressing rice plants to methyl-benquitrione” value was “can improve the resistance; also recorded: obvious resistance”. In addition, the “Catalytic efficiency (%) Compound A” value in series [8] (substrate Compound A 50 μM) was found to be 97%. For the same molecule, the “Catalytic efficiency (%) benzobicyclon technical” value in series [8] (substrate benzobicyclon technical 50 μM) worked out at 100%. Besides, the “Catalytic efficiency (%) Mesotrione” value in series [8] (substrate mesotrione 50 μM) was determined as 90%. Further, the “Catalytic efficiency (%) methyl-benquitrione” value in series [8] (substrate methyl-benquitrione 50 μM) stood at 95%. In addition, the “Catalytic efficiency (%) pyraquinate technical” value in series [8] (substrate pyraquinate technical 50 μM) came out at 40%. Further, the “Catalytic efficiency (%) tefuryltrione” value in series [8] (substrate tefuryltrione 50 μM) is on record as 85%. In series [8] (substrate tembotrione 50 μM), the “Catalytic efficiency (%) tembotrione” value is 71%.

The values are drawn from patent US20260043041A1, “HSL PROTEIN, GENE, VECTOR, CELL, COMPOSITION AND USE THEREOF, AND METHOD FOR IMPROVING HERBICIDE RESISTANCE OF CROPS” (CENTRAL CHINA NORMAL UNIVERSITY, priority 2022, published 2026).
